US12630600B2 (MEDIMMUNE LIMITED, priority 2022, dated 2026)
Starred links: 1 amine or outer side, 2 acyl side, 3 side chain; linkers in the order of their positions; H or OH if unused. Non-standard residues stand in square brackets, D forms with d. Groups on a side chain read outwards from the residue. No end group written: not given here. *: point of attachment. C18 diacid = O=C(O)CCCCCCCCCCCCCCCCC(=O)*; γGlu = O=C(O)[C@H](CCC(=O)[*:2])N[*:1]; Stearoyl = CCCCCCCCCCCCCCCCCC(=O)*; Palmitoyl = CCCCCCCCCCCCCCCC(=O)*; αMeF = C[C@](N)(Cc1ccccc1)C(=O)O; Myristoyl = CCCCCCCCCCCCCC(=O)*; (PEG)2 = polyethylene glycol 2; AEEA = NCCOCCOCC(=O)O; Aib = CC(C)(N)C(=O)O

B1: Peptide 127 (peptide)
peptide: H[Aib]QGS[αMeF]TSDVSKILDSK([(PEG)2-(PEG)2-γGlu-Stearoyl])AAQD[αMeF]VQ[Aib]IINT-NH2
B2: Peptide 13 (peptide)
peptide: H[Aib]HGS[αMeF]TSDVSK[αMeF]LDSK([AEEA-AEEA-γGlu-C18 diacid])AARD[αMeF]VQ[Aib]IANT-NH2
modifications: N-terminus assumed
SMILES: CC[C@H](C)[C@H](NC(=O)C(C)(C)NC(=O)[C@H](CCC(N)=O)NC(=O)[C@@H](NC(=O)[C@](C)(Cc1ccccc1)NC(=O)[C@H](CC(=O)O)NC(=O)[C@H](CCCNC(=N)N)NC(=O)[C@H](C)NC(=O)[C@H](C)NC(=O)[C@H](CCCCNC(=O)COCCOCCNC(=O)COCCOCCNC(=O)CC[C@H](NC(=O)CCCCCCCCCCCCCCCCC(=O)O)C(=O)O)NC(=O)[C@H](CO)NC(=O)[C@H](CC(=O)O)NC(=O)[C@H](CC(C)C)NC(=O)[C@](C)(Cc1ccccc1)NC(=O)[C@H](CCCCN)NC(=O)[C@H](CO)NC(=O)[C@@H](NC(=O)[C@H](CC(=O)O)NC(=O)[C@H](CO)NC(=O)[C@@H](NC(=O)[C@](C)(Cc1ccccc1)NC(=O)[C@H](CO)NC(=O)CNC(=O)[C@H](Cc1c[nH]cn1)NC(=O)C(C)(C)NC(=O)[C@@H](N)Cc1c[nH]cn1)[C@@H](C)O)C(C)C)C(C)C)C(=O)N[C@@H](C)C(=O)N[C@@H](CC(N)=O)C(=O)N[C@H](C(N)=O)[C@@H](C)O
B3: Peptide 121 (peptide)
peptide: HSQGS[αMeF]TSDVSKILDSK([(PEG)2-(PEG)2-γGlu-Palmitoyl])AAQD[αMeF]VQ[Aib]IINT-NH2
B4: Peptide 120 (peptide)
peptide: HSQGS[αMeF]TSDVSKILDSK([(PEG)2-(PEG)2-γGlu-Stearoyl])AAQD[αMeF]VQ[Aib]IINT-NH2
B5: Peptide 122 (peptide)
peptide: HSQGS[αMeF]TSDVSKILDSK([(PEG)2-(PEG)2-γGlu-Myristoyl])AAQD[αMeF]VQ[Aib]IINT-NH2
B6: Peptide 119 (peptide)
peptide: HSQGS[αMeF]TSDVSKILDSK([(PEG)2-(PEG)2-γGlu-γGlu-Myristoyl])AAQD[αMeF]VQ[Aib]IINT-NH2
B7: Peptide 125 (peptide)
peptide: H[Aib]QGS[αMeF]TSDVSKILDSK([(PEG)2-(PEG)2-γGlu-γGlu-Palmitoyl])AAQD[αMeF]VQ[Aib]IINT-NH2
B8: Peptide 118 (peptide)
peptide: HSQGS[αMeF]TSDVSKILDSK([(PEG)2-(PEG)2-γGlu-γGlu-Palmitoyl])AAQD[αMeF]VQ[Aib]IINT-NH2

biological target: human GLP-1 receptor (human, UniProt P43220); experiment: cell-based or functional assay

| Binder | cAMP production, hGLP-1R EC50 (pM) |
| --- | --- |
| B1 | 0.998 |
| B2 | 15.9 |
| B3 | 1.5 |
| B4 | 1.81 |
| B5 | 1.42 |
| B6 | 1.39 |
| B7 | 0.575 |
| B8 | 1.07 |

biological target: human glucagon receptor (human, UniProt P47871); experiment: cell-based or functional assay

| Binder | cAMP production, hGluc-R EC50 (pM) |
| --- | --- |
| B1 | 12.6 |
| B2 | 44 |
| B3 | 1.2 |
| B4 | 2.62 |
| B5 | 0.857 |
| B6 | 1.7 |
| B7 | 6.68 |
| B8 | 1.2 |
